Results reported in US20250346683A1 (AstraZeneca / MedImmune, published 2025).

Biological target: T1, human endothelial lipase (EL) (human, UniProt Q9Y5X9 21-500)
T1 construct: also called human EL; LIPG gene product
T1 sequence (looked up): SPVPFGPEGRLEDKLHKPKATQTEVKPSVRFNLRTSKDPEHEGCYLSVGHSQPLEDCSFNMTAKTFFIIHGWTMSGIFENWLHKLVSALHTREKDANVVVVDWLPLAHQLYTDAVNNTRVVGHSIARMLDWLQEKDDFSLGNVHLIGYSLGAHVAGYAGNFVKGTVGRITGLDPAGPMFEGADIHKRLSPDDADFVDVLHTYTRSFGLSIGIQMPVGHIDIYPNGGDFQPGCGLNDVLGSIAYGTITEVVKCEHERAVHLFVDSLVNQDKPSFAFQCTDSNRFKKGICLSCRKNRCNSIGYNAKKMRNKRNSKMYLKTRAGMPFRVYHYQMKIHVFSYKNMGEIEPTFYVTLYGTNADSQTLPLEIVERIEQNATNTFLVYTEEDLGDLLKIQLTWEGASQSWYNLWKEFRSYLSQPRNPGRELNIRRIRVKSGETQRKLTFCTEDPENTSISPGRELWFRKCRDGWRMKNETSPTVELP
Assay: sandwich ECL immunoassay (MSD): MEDI5884 coated as capture, EL from plasma or reference standard as analyte, biotinylated anti-human EL antibody (OriGene) as detection
Method: Sandwich immunoassay was developed for the detection human EL utilizing ECL readout. An MSD (MesoScale Discovery) plate was coated with 5 μg/ml of MEDI5884, at 50 μl/well, incubated at 4° C. on a flat surface and subsequently washed 3× with 300 μl/well of ELISA Wash Buffer. The assay plate(s) were blocked with 150 μl/well of I Block Buffer (IBB) for ≥60 min on an orbital plate shaker at room temperature (RT). Reference standards (RS), quality control (QC) and negative control (NC), prepared in IBB, and test samples were added to the plates at 35 μl/well. Samples that had been previously tested determined the minimally required dilution ratio (MRD) as two (2) for plasma samples. The assay plate(s) were incubated at RT on a plate shaker with gentle shaking for 60 minutes±10 minutes. Unbound analyte was removed by washing the plate(s) with ELISA wash buffer. To detect the captured analyte, 1 μg/ml of biotinylated anti-human EL monoclonal antibody (OriGene) was added at 35 μl/well and incubated for an additional 60 minutes±10 minutes at RT on a plate shaker. Unbound detection antibody was removed by washing the plate(s). […] Plates were washed again and Read Buffer was added at 150 μl/well. Signal was read on a MSD sector imager instrument within 20 minutes of addition of the Read Buffer. […]

- binding result: binds
B1: MEDI5884 (antibody, human IgG4 S228P, kappa, V domains shown)
VH: QVQLVQSGSELKKPGASVKVSCKASGYTFTNYALNWVRQAPGQGLEWMGWINTYSGVGTYAGEFKGRFVFSLDTSVSTAYLQISSLKAEDTAVYYCARRGFYGRRFFDVWGKGTTVTVSS
VL: DIQLTQSPSSLSASVGDRVTITCKASQSVDYDVDSYMHWYQQKPGKAPKLLIYAASNLASGVPSRFSGSGSGTDFTFTISSLQPEDIATYYCQQTIEDPPTFGGGTKVEIKR
notes: It was coated on the MSD plate as the capture reagent
